What all share (assay): negative-stain electron microscopy
The target in series [1] is Cdc3–Cdc11–(His)6–Cdc12-Cdc10(Δ12–28) complex (Cdc11-Cdc12-Cdc3-Cdc10(Δ12–28) hetero-tetramer) (S. cerevisiae) (UniProt P32457).
Series [2] shares this target. This is another data set of the same source.
Series [3] has as its target Cdc12(Δ318–407) (S. cerevisiae).
Series [4] concerns the molecule itself.
Series [5] deals with the molecule itself. The source holds these as a separate data set.

Like-named read-outs stand apart in the source and are kept apart here.

In series [1], “Cdc3–Cdc11–(His)6–Cdc12-Cdc10(Δ12–28) complex (Cdc11-Cdc12-Cdc3-Cdc10(Δ12–28) hetero-tetramer) (from UniProt P32457 1-520; P32458 1-415; P32468 1-407; P25342 1-322)” displayed a percent of particles that are tetramers of 88.3% and a percent of particles that are trimers of 11.7%. Further, in series [2], the percent of particles that are heptamers came to 18.2%, the percent of particles that are hexamers was 10.8%, the percent of particles that are octamers is 21.8% and the percent of particles that are pentamers turned out to be 8.03%. The molecule also yielded a percent of particles that are tetramers in series [2] of 41.3%.

B1: Cdc11 (natural protein, S. cerevisiae, UniProt P32458 1-415, looked up)
chain: MSGIIDASSALRKRKHLKRGITFTVMIVGQSGSGRSTFINTLCGQQVVDTSTTILLPTDTSTEIDLQLREETVELEDDEGVKIQLNIIDTPGFGDSLDNSPSFEIISDYIRHQYDEILLEESRVRRNPRFKDGRVHCCLYLINPTGHGLKEIDVEFIRQLGSLVNIIPVISKSDSLTRDELKLNKKLIMEDIDRWNLPIYNFPFDEDEISDEDYETNMYLRTLLPFAIIGSNEVYEMGGDVGTIRGRKYPWGILDVEDSSISDFVILRNALLISHLHDLKNYTHEILYERYRTEALSGESVAAESIRPNLTKLNGSSSSSTTTRRNTNPFKQSNNINNDVLNPASDMHGQSTGENNETYMTREEQIRLEEERLKAFEERVQQELLLKRQELLQREKELREIEARLEKEAKIKQEE
B1: in series [3], the percent of particles that are heptamers is 31.5%, the percent of particles that are hexamers amounted to 18.5% and the percent of particles that are octamers was 50%. The binding result in series [4] was “binds”.

B2: Cdc3(K90A R93A R94A)–Cdc11–(His)6–Cdc12-Cdc10 complex (complex, S. cerevisiae)
chain 1: MSLKEEQVSIKQDPEQEERQHDQFNDVQIKQESQDHDGVDSQYTNGTQNDDSERFEAAESDVKVEPGLGMGITSSQSEKGQVLPDQPEIAFIAAQINGYVGFANLPKQWHRRSIKNGFSFNLLCVGPDGIGKTTLMKTLFNNDDIEANLVKDYEEELANDQEEEEGQGEGHENQSQEQRHKVKIKSYESVIEENGVKLNLNVIDTEGFGDFLNNDQKSWDPIIKEIDSRFDQYLDAENKINRHSINDKRIHACLYFIEPTGHYLKPLDLKFMQSVYEKCNLIPVIAKSDILTDEEILSFKKTIMNQLIQSNIELFKPPIYSNDDAENSHLSERLFSSLPYAVIGSNDIVENYSGNQVRGRSYPWGVIEVDNDNHSDFNLLKNLLIKQFMEELKERTSKILYENYRSSKLAKLGIKQDNSVFKEFDPISKQQEEKTLHEAKLAKLEIEMKTVFQQKVSEKEKKLQKSETELFARHKEMKEKLTKQLKALEDKKKQLELSINSASPNVNHSPVPTKKKGFLR
chain 2: MSGIIDASSALRKRKHLKRGITFTVMIVGQSGSGRSTFINTLCGQQVVDTSTTILLPTDTSTEIDLQLREETVELEDDEGVKIQLNIIDTPGFGDSLDNSPSFEIISDYIRHQYDEILLEESRVRRNPRFKDGRVHCCLYLINPTGHGLKEIDVEFIRQLGSLVNIIPVISKSDSLTRDELKLNKKLIMEDIDRWNLPIYNFPFDEDEISDEDYETNMYLRTLLPFAIIGSNEVYEMGGDVGTIRGRKYPWGILDVEDSSISDFVILRNALLISHLHDLKNYTHEILYERYRTEALSGESVAAESIRPNLTKLNGSSSSSTTTRRNTNPFKQSNNINNDVLNPASDMHGQSTGENNETYMTREEQIRLEEERLKAFEERVQQELLLKRQELLQREKELREIEARLEKEAKIKQEE
chain 3: MSAATATAAPVPPPVGISNLPNQRYKIVNEEGGTFTVMLCGESGLGKTTFINTLFQTVLKRADGQQHRQEPIRKTVEIDITRALLEEKHFELRVNVIDTPGFGDNVNNNKAWQPLVDFIDDQHDSYMRQEQQPYRTKKFDLRVHAVLYFIRPTGHGLKPIDIETMKRLSTRANLIPVIAKADTLTAQELQQFKSRIRQVIEAQEIRIFTPPLDADSKEDAKSGSNPDSAAVEHARQLIEAMPFAIVGSEKKFDNGQGTQVVARKYPWGLVEIENDSHCDFRKLRALLLRTYLLDLISTTQEMHYETYRRLRLEGHENTGEGNEDFTLPAIAPARKLSHNPRYKEEENALKKYFTDQVKAEEQRFRQWEQNIVNERIRLNGDLEEIQGKVKKLEEQVKSLQVKKSHLK
chain 4: MDPLSSVQPASYVGFDTITNQIEHRLLKKGFQFNIMVVGQSGLGKSTLINTLFASHLIDSATGDDISALPVTKTTEMKISTHTLVEDRVRLNINVIDTPGFGDFIDNSKAWEPIVKYIKEQHSQYLRKELTAQRERFITDTRVHAILYFLQPNGKELSRLDVEALKRLTEIANVIPVIGKSDTLTLDERTEFRELIQNEFEKYNFKIYPYDSEELTDEELELNRSVRSIIPFAVVGSENEIEINGETFRGRKTRWSAINVEDINQCDFVYLREFLIRTHLQDLIETTSYIHYEGFRARQLIALKENANSRSSAHMSSNAIQR
For the molecule B2, the binding result in series [4] is “binds”.

B3: Cdc3(R111A R112A K115A)–Cdc11–(His)6–Cdc12-Cdc10 complex (complex, S. cerevisiae)
chain 1: MSLKEEQVSIKQDPEQEERQHDQFNDVQIKQESQDHDGVDSQYTNGTQNDDSERFEAAESDVKVEPGLGMGITSSQSEKGQVLPDQPEIKFIRRQINGYVGFANLPKQWHAASIANGFSFNLLCVGPDGIGKTTLMKTLFNNDDIEANLVKDYEEELANDQEEEEGQGEGHENQSQEQRHKVKIKSYESVIEENGVKLNLNVIDTEGFGDFLNNDQKSWDPIIKEIDSRFDQYLDAENKINRHSINDKRIHACLYFIEPTGHYLKPLDLKFMQSVYEKCNLIPVIAKSDILTDEEILSFKKTIMNQLIQSNIELFKPPIYSNDDAENSHLSERLFSSLPYAVIGSNDIVENYSGNQVRGRSYPWGVIEVDNDNHSDFNLLKNLLIKQFMEELKERTSKILYENYRSSKLAKLGIKQDNSVFKEFDPISKQQEEKTLHEAKLAKLEIEMKTVFQQKVSEKEKKLQKSETELFARHKEMKEKLTKQLKALEDKKKQLELSINSASPNVNHSPVPTKKKGFLR
chain 2: MSGIIDASSALRKRKHLKRGITFTVMIVGQSGSGRSTFINTLCGQQVVDTSTTILLPTDTSTEIDLQLREETVELEDDEGVKIQLNIIDTPGFGDSLDNSPSFEIISDYIRHQYDEILLEESRVRRNPRFKDGRVHCCLYLINPTGHGLKEIDVEFIRQLGSLVNIIPVISKSDSLTRDELKLNKKLIMEDIDRWNLPIYNFPFDEDEISDEDYETNMYLRTLLPFAIIGSNEVYEMGGDVGTIRGRKYPWGILDVEDSSISDFVILRNALLISHLHDLKNYTHEILYERYRTEALSGESVAAESIRPNLTKLNGSSSSSTTTRRNTNPFKQSNNINNDVLNPASDMHGQSTGENNETYMTREEQIRLEEERLKAFEERVQQELLLKRQELLQREKELREIEARLEKEAKIKQEE
chain 3: MSAATATAAPVPPPVGISNLPNQRYKIVNEEGGTFTVMLCGESGLGKTTFINTLFQTVLKRADGQQHRQEPIRKTVEIDITRALLEEKHFELRVNVIDTPGFGDNVNNNKAWQPLVDFIDDQHDSYMRQEQQPYRTKKFDLRVHAVLYFIRPTGHGLKPIDIETMKRLSTRANLIPVIAKADTLTAQELQQFKSRIRQVIEAQEIRIFTPPLDADSKEDAKSGSNPDSAAVEHARQLIEAMPFAIVGSEKKFDNGQGTQVVARKYPWGLVEIENDSHCDFRKLRALLLRTYLLDLISTTQEMHYETYRRLRLEGHENTGEGNEDFTLPAIAPARKLSHNPRYKEEENALKKYFTDQVKAEEQRFRQWEQNIVNERIRLNGDLEEIQGKVKKLEEQVKSLQVKKSHLK
chain 4: MDPLSSVQPASYVGFDTITNQIEHRLLKKGFQFNIMVVGQSGLGKSTLINTLFASHLIDSATGDDISALPVTKTTEMKISTHTLVEDRVRLNINVIDTPGFGDFIDNSKAWEPIVKYIKEQHSQYLRKELTAQRERFITDTRVHAILYFLQPNGKELSRLDVEALKRLTEIANVIPVIGKSDTLTLDERTEFRELIQNEFEKYNFKIYPYDSEELTDEELELNRSVRSIIPFAVVGSENEIEINGETFRGRKTRWSAINVEDINQCDFVYLREFLIRTHLQDLIETTSYIHYEGFRARQLIALKENANSRSSAHMSSNAIQR
Regarding B3, in series [4], the binding result is recorded as “binds”.

B4: Cdc10 (natural protein, S. cerevisiae, UniProt P25342 1-322, looked up)
chain: MDPLSSVQPASYVGFDTITNQIEHRLLKKGFQFNIMVVGQSGLGKSTLINTLFASHLIDSATGDDISALPVTKTTEMKISTHTLVEDRVRLNINVIDTPGFGDFIDNSKAWEPIVKYIKEQHSQYLRKELTAQRERFITDTRVHAILYFLQPNGKELSRLDVEALKRLTEIANVIPVIGKSDTLTLDERTEFRELIQNEFEKYNFKIYPYDSEELTDEELELNRSVRSIIPFAVVGSENEIEINGETFRGRKTRWSAINVEDINQCDFVYLREFLIRTHLQDLIETTSYIHYEGFRARQLIALKENANSRSSAHMSSNAIQR
Regarding B4, the binding result in series [5] is reported as “binds”.

B5: Cdc10(H24A R25A K28A K29A) (natural protein, S. cerevisiae, UniProt P25342 1-322, looked up)
chain: MDPLSSVQPASYVGFDTITNQIEAALLAAGFQFNIMVVGQSGLGKSTLINTLFASHLIDSATGDDISALPVTKTTEMKISTHTLVEDRVRLNINVIDTPGFGDFIDNSKAWEPIVKYIKEQHSQYLRKELTAQRERFITDTRVHAILYFLQPNGKELSRLDVEALKRLTEIANVIPVIGKSDTLTLDERTEFRELIQNEFEKYNFKIYPYDSEELTDEELELNRSVRSIIPFAVVGSENEIEINGETFRGRKTRWSAINVEDINQCDFVYLREFLIRTHLQDLIETTSYIHYEGFRARQLIALKENANSRSSAHMSSNAIQR
For B5, the binding result in series [5] is “binds”.

B6: Cdc10(I22E) (natural protein, S. cerevisiae, UniProt P25342 1-322, looked up)
chain: MDPLSSVQPASYVGFDTITNQEEHRLLKKGFQFNIMVVGQSGLGKSTLINTLFASHLIDSATGDDISALPVTKTTEMKISTHTLVEDRVRLNINVIDTPGFGDFIDNSKAWEPIVKYIKEQHSQYLRKELTAQRERFITDTRVHAILYFLQPNGKELSRLDVEALKRLTEIANVIPVIGKSDTLTLDERTEFRELIQNEFEKYNFKIYPYDSEELTDEELELNRSVRSIIPFAVVGSENEIEINGETFRGRKTRWSAINVEDINQCDFVYLREFLIRTHLQDLIETTSYIHYEGFRARQLIALKENANSRSSAHMSSNAIQR
For the molecule B6, the binding result in series [5] was “binds”.

The values above are taken from paper PMC3005623 (Journal of molecular biology, 2010).
